Measured values from PMC7045587.
“Also recorded” adds a separate entry of the source.

Legend:
Conditions in all cases: control: wild type
[1] = activity at 30-90 °C
[2] = protein yield after purification from P. pastoris
[3] = thermal inactivation half-life at 80 °C
[4] = DNS reducing-sugar assay, 60 °C
[5] = activity across pH 3-9
[6] = residual activity after 200 min at 30-90 °C
[7] = Michaelis-Menten kinetics, 60 °C, pH 4
[8] = thermal inactivation half-life at 90 °C

Row | Protein | other: optimal temperature of activity ([1]; glycan gained) | expression_or_secretion ([2]; glycan gained) | stability_or_folding, half_life ([3]; glycan gained) | enzymatic_activity, other: specific activity ([4]; glycan gained) | other: optimal pH of activity ([5]; glycan gained) | stability_or_folding ([6]; glycan gained) | enzymatic_activity, kcat_Km ([7]; glycan gained) | stability_or_folding, half_life ([8]; glycan gained) | other: optimal temperature of activity ([1]; glycan lost) | expression_or_secretion ([2]; glycan lost) | stability_or_folding, half_life ([3]; glycan lost) | enzymatic_activity, other: specific activity ([4]; glycan lost) | other: optimal pH of activity ([5]; glycan lost) | stability_or_folding ([6]; glycan lost) | enzymatic_activity, kcat_Km ([7]; glycan lost) | stability_or_folding, half_life ([8]; glycan lost)
1 | CTendo45: L47T (protein) parent chain: MHLSQLALPLLLAAGAHAQGAQGTGRTTRYWDCCKPSCAWPGKSNALQPVQTCNAQDQPLNDGGNTRSGCDSGGSAFMCSNQSPWALNETLSYGWAAVRIAGQSEFNWCCACYELTFTSGPVAGKKMIVQATNTGGDLGSNHFDIAIPGGGVGIFNACTQQYGAPPNGWGERYGGIRSRSECDSFPEALKAGCYWRFDWFLGADNPDVSFKQVACPAAITAKSKCVRQRDVIDQTPTGPEIVPTWTP | no change | no change | increases, 230 vs 150; also recorded: increases, 210 vs 130 | increases, 1.36 ± 0.06 vs 1.21 ± 0.08; also recorded: increases, 2.17 ± 0.08 vs 2.07 ± 0.14 | no change | increases | increases, 74.65 ± 1.36 vs 62.06 ± 1.25; also recorded: increases, 192.43 ± 1.85 vs 138.46 ± 2.07 | increases, 55 vs 35; also recorded: increases, 45 vs 28 | – | – | – | – | – | – | – | –
2 | CTendo45: T90A (protein) parent chain: MHLSQLALPLLLAAGAHAQGAQGTGRTTRYWDCCKPSCAWPGKSNALQPVQTCNAQDQPLNDGGNTRSGCDSGGSAFMCSNQSPWALNETLSYGWAAVRIAGQSEFNWCCACYELTFTSGPVAGKKMIVQATNTGGDLGSNHFDIAIPGGGVGIFNACTQQYGAPPNGWGERYGGIRSRSECDSFPEALKAGCYWRFDWFLGADNPDVSFKQVACPAAITAKSKCVRQRDVIDQTPTGPEIVPTWTP | – | – | – | – | – | – | – | – | no change | no change | increases, 260 vs 150; also recorded: increases, 230 vs 130 | increases, 2.24 ± 0.18 vs 1.21 ± 0.08; also recorded: increases, 3.39 ± 0.21 vs 2.07 ± 0.14 | no change | increases | increases, 97.54 ± 2.13 vs 62.06 ± 1.25; also recorded: increases, 217.90 ± 2.83 vs 138.46 ± 2.07 | increases, 65 vs 35; also recorded: increases, 50 vs 28
3 | CTendo45: F143S (protein) parent chain: MHLSQLALPLLLAAGAHAQGAQGTGRTTRYWDCCKPSCAWPGKSNALQPVQTCNAQDQPLNDGGNTRSGCDSGGSAFMCSNQSPWALNETLSYGWAAVRIAGQSEFNWCCACYELTFTSGPVAGKKMIVQATNTGGDLGSNHFDIAIPGGGVGIFNACTQQYGAPPNGWGERYGGIRSRSECDSFPEALKAGCYWRFDWFLGADNPDVSFKQVACPAAITAKSKCVRQRDVIDQTPTGPEIVPTWTP | no change | no change | – | – | no change | – | – | – | – | – | – | – | – | – | – | –
4 | CTendo45: R67S (protein) parent chain: MHLSQLALPLLLAAGAHAQGAQGTGRTTRYWDCCKPSCAWPGKSNALQPVQTCNAQDQPLNDGGNTRSGCDSGGSAFMCSNQSPWALNETLSYGWAAVRIAGQSEFNWCCACYELTFTSGPVAGKKMIVQATNTGGDLGSNHFDIAIPGGGVGIFNACTQQYGAPPNGWGERYGGIRSRSECDSFPEALKAGCYWRFDWFLGADNPDVSFKQVACPAAITAKSKCVRQRDVIDQTPTGPEIVPTWTP | no change | no change | increases, 190 vs 150; also recorded: increases, 160 vs 130 | increases, 1.58 ± 0.12 vs 1.21 ± 0.08; also recorded: increases, 2.62 ± 0.13 vs 2.07 ± 0.14 | no change | increases | increases, 83.49 ± 1.25 vs 62.06 ± 1.25; also recorded: increases, 198.76 ± 2.17 vs 138.46 ± 2.07 | increases, 45 vs 35; also recorded: increases, 35 vs 28 | – | – | – | – | – | – | – | –
5 | CTendo45: W169S (protein) parent chain: MHLSQLALPLLLAAGAHAQGAQGTGRTTRYWDCCKPSCAWPGKSNALQPVQTCNAQDQPLNDGGNTRSGCDSGGSAFMCSNQSPWALNETLSYGWAAVRIAGQSEFNWCCACYELTFTSGPVAGKKMIVQATNTGGDLGSNHFDIAIPGGGVGIFNACTQQYGAPPNGWGERYGGIRSRSECDSFPEALKAGCYWRFDWFLGADNPDVSFKQVACPAAITAKSKCVRQRDVIDQTPTGPEIVPTWTP | no change | no change | – | – | no change | – | – | – | – | – | – | – | – | – | – | –
6 | CTendo45: Q56T (protein) parent chain: MHLSQLALPLLLAAGAHAQGAQGTGRTTRYWDCCKPSCAWPGKSNALQPVQTCNAQDQPLNDGGNTRSGCDSGGSAFMCSNQSPWALNETLSYGWAAVRIAGQSEFNWCCACYELTFTSGPVAGKKMIVQATNTGGDLGSNHFDIAIPGGGVGIFNACTQQYGAPPNGWGERYGGIRSRSECDSFPEALKAGCYWRFDWFLGADNPDVSFKQVACPAAITAKSKCVRQRDVIDQTPTGPEIVPTWTP | no change | no change | decreases, 110 vs 150; also recorded: decreases, 100 vs 130 | increases, 1.28 ± 0.10 vs 1.21 ± 0.08; also recorded: no change, 2.09 ± 0.15 vs 2.07 ± 0.14 | no change | decreases | increases, 70.67 ± 1.74 vs 62.06 ± 1.25; also recorded: increases, 177.29 ± 1.47 vs 138.46 ± 2.07 | decreases, 20 vs 35; also recorded: decreases, 15 vs 28 | – | – | – | – | – | – | – | –
7 | CTendo45: G63T (protein) parent chain: MHLSQLALPLLLAAGAHAQGAQGTGRTTRYWDCCKPSCAWPGKSNALQPVQTCNAQDQPLNDGGNTRSGCDSGGSAFMCSNQSPWALNETLSYGWAAVRIAGQSEFNWCCACYELTFTSGPVAGKKMIVQATNTGGDLGSNHFDIAIPGGGVGIFNACTQQYGAPPNGWGERYGGIRSRSECDSFPEALKAGCYWRFDWFLGADNPDVSFKQVACPAAITAKSKCVRQRDVIDQTPTGPEIVPTWTP | no change | no change | decreases, 130 vs 150; also recorded: decreases, 110 vs 130 | decreases, 0.91 ± 0.08 vs 1.21 ± 0.08; also recorded: decreases, 1.71 ± 0.11 vs 2.07 ± 0.14 | no change | decreases | – | decreases, 25 vs 35; also recorded: decreases, 20 vs 28 | – | – | – | – | – | – | – | –
8 | CTendo45: F143T (protein) parent chain: MHLSQLALPLLLAAGAHAQGAQGTGRTTRYWDCCKPSCAWPGKSNALQPVQTCNAQDQPLNDGGNTRSGCDSGGSAFMCSNQSPWALNETLSYGWAAVRIAGQSEFNWCCACYELTFTSGPVAGKKMIVQATNTGGDLGSNHFDIAIPGGGVGIFNACTQQYGAPPNGWGERYGGIRSRSECDSFPEALKAGCYWRFDWFLGADNPDVSFKQVACPAAITAKSKCVRQRDVIDQTPTGPEIVPTWTP | no change | no change | – | – | no change | – | – | – | – | – | – | – | – | – | – | –
